The record followed here is the supplement of paper PMC9170038.

The data set concerns MS2 coat protein. The data set is described as follows: apparent KD of MS2 coat protein; designed switch direction (-1 OFF switch, 1 ON switch): -1; higher = weaker reporter binding. The method, boiled down:
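Designed RNA switches sharing common flanks were transcribed on Illumina chips by stalled E. coli RNA polymerase. They were titrated with SNAP-549-labelled MS2 coat protein, from 0.7 or 1.5 nM doubling to 3 µM, in Tris-HCl pH 7.5 buffer with KCl, MgCl2, BSA, DTT, tRNA and Tween-20. Titrations ran without input, with 200 uM small-molecule ligand, or with an oligonucleotide input. The apparent KD of each design is the median over its clusters, after curve-fitting of normalised cluster fluorescence.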

The mark [1] stands for this setting: input ligand: microRNA oligo, concentration not stated.
Where [2] appears, read: Eterna round: R95, input ligand: microRNA oligo, concentration not stated.
The mark [3] stands for this setting: Eterna round: R95, input ligand: FMN 200 uM.
The mark [4] stands for this setting: Eterna round: R95, input ligand: none.

In the case of “AAGGAUAGAGGAUAUACAUAGAUACAGAUUCAUGUAGUCCUACAUGAGGAUCACCCAUGUAGAAGGCUAUCCUA [Fiskers Ex 2 - 12] (Eterna round: R96, puzzle: Exclusion 2)”, the “apparent KD of MS2 coat protein” value (input ligand: FMN 200 uM) came out at 103 nM, the “apparent KD of MS2 coat protein” value under setting [1] worked out at 14.3 nM and the “apparent KD of MS2 coat protein” value (input ligand: none) stood at 18.7 nM.

Regarding “CAGUACUGAGGAUAUACAUGAGGAUCACCCAUGUGUUCCUGCUAGGAAACUAGCAAAAGUAGAAGGCAGUACUG [salish99_ex3_r3_098x] (puzzle: Exclusion 3)”, the “apparent KD of MS2 coat protein” value under setting [2] turned out to be 28.5 nM.

In the case of “UUGUUAUAUGUAGGAUAUGCAUAUUAUUAUUGUGCAGAAGGACAUGAGGAUCACCCAUGUAUAUUAUUAUUAUAUAUUAUAUAU [Title] (Eterna round: R96, puzzle: Exclusion NG 1)”, the “apparent KD of MS2 coat protein” value under setting [1] came out at 26.1 nM.

As for “CGGGAGGGACAAGCUUUUUGCACGUCUGUUAUUGAUGCUACAUGAGGAUCACCCAUGUUUAGGGUGUGUGAGGAUGG [JR_SV3TOV2_Sub052] (puzzle: Sensor v3, turn-off variant 2)”, the “apparent KD of MS2 coat protein” value was found to be 437 nM under setting [3], 239 nM under setting [2] and 571 nM under setting [4].

In the case of “UGAUCUUGUGUUAGGAUAUGCUGGUUUUUUUUUCAGCAGAAGGGACAUGAGGAUCACCCAUGUUCUCUCUUUUU [Magic-10] (puzzle: Brourd's mod of Exclusion 4)”, the “apparent KD of MS2 coat protein” value under setting [2] amounted to 15 nM.

With “UGUUGUUCAGGAUAUGAAGUAUAUUACAUGAGGAUCACCCAUGUAGAUCCUGAAUAUACAUCAGAAGGGAAUAUUU [JR_Ex5_Sub057] (Eterna round: R97, puzzle: Exclusion 5)”, the “apparent KD of MS2 coat protein” value runs as follows: (input ligand: FMN 200 uM) 51 nM; (input ligand: none) 21.1 nM.

Turning to “ACAUGAGGAUCACCCAUGUCCGGCUGGUCCGUUUCGGCUGUCGAGGAUAUAGUUCGGUGUUCGCGCUAGAAGGCGGGAGCUGGC [Aenatbe mod 60] (Eterna round: R96, puzzle: Exclusion NG 3)”, the “apparent KD of MS2 coat protein” value is, setting by setting: (input ligand: FMN 200 uM) 206 nM; under setting [1], 68.7 nM; (input ligand: none) 114 nM.

Take “UAUUGGCUAGGAUAUCCGGCUGGCGACAUGAGGAUCACCCAUGUGGACUCUGGUUGUCUUGGAGAAGGAGCAUGCG [EX5 B.19] (Eterna round: R97, puzzle: Exclusion 5)”: the “apparent KD of MS2 coat protein” value is, setting by setting: (input ligand: FMN 200 uM) 206 nM; (input ligand: none) 138 nM.

As to “ACCGCUUCUGCAGGAUAUGGACAACAUGAGGAUCACCCAUGUGAUCUAUAAAGUAGUGGUGGCGUCCAGAAGGGCAGAUUAAGG [Maamabi] (Eterna round: R96, puzzle: Exclusion NG 2)”, the “apparent KD of MS2 coat protein” value by setting is: (input ligand: FMN 200 uM) 197 nM; under setting [1], 48.2 nM; (input ligand: none) 96.3 nM.

As to “AUAUUGUGAGGAUAUGAACUUACUAUCGAAAGAUACUAAGUUCAGAAGGCACAUGAGGAUCACCCAUGUUUCUC [Long static hairpin v19] (Eterna round: R97, puzzle: Exclusion 4)”, the “apparent KD of MS2 coat protein” value reads like this: (input ligand: FMN 200 uM) 664 nM; (input ligand: none) 76.1 nM.

On to “CCAUAGGGAGGAUAUCCAAUAUAUGACAUGAGGAUCACCCAUGUUUCCACUCGUACCUCCGGAGAAGGCCCAUAAC [Ex5 #8] (Eterna round: R97, puzzle: Exclusion 5)”, for which the “apparent KD of MS2 coat protein” value reads like this: (input ligand: FMN 200 uM) 24.4 nM; (input ligand: none) 21.4 nM.

“UCACGGGACUGAGGAUAUACAUCAACCAUGGUUGUAGAAGGCAGAAGGUUGGAUCAUAUACUAAACAUGAGGAUCACCCAUGUU [JR_ExcNG1_Sub030] (Eterna round: R96, puzzle: Exclusion NG 1)”: the “apparent KD of MS2 coat protein” value (input ligand: FMN 200 uM) came out at 23.6 nM, the “apparent KD of MS2 coat protein” value under setting [1] amounted to 19.9 nM and the “apparent KD of MS2 coat protein” value (input ligand: none) is 20.7 nM.

Turning to “GAAUAGGCAGGAUAUACAUGAGGAUCACCCAUGUGCCUGCGAAAGGUACGUUCGAAAGGUAGAAGGGCCUAAAC [ChP 13.04.2015 #6] (puzzle: Exclusion 3)”, the “apparent KD of MS2 coat protein” value under setting [2] was found to be 12.2 nM.

Regarding “UUCUUCUCUGUUAGGAUAUUCUCCGCAGAUGCCUGGAAGAAGGGACAUGAGGAUCACCCAUGUAGUGUAAGCUA [Eternabot (L2) Solution 58] (Eterna round: R97, puzzle: Brourd's mod of Exclusion 4)”, the “apparent KD of MS2 coat protein” value is 40.6 nM (input ligand: FMN 200 uM) and 62.8 nM (input ligand: none).

In the case of “CCUAUGUGAGGAUAUGGUGUUGGCCACAAGGAAAAGCUCCUCCAGAAGGCACAUGAGGAUCACCCAUGUCGUGG [Jolly's Folly 25 - Jieux - Exclusion 4] (Eterna round: R96, puzzle: Exclusion 4)”, the “apparent KD of MS2 coat protein” value reads like this: (input ligand: FMN 200 uM) 212 nM; under setting [1], 48.2 nM; (input ligand: none) 61.1 nM.

In the case of “CUGGGCCGAGGAUAUAUUAUGUGAAACAUGAGGAUCACCCAUGUAAUAUGAUGGAUGUAAAUAGAAGGCGGUCUAG [Mat - Exclusion 5 - JL mod - D27] (puzzle: Exclusion 5)”, the “apparent KD of MS2 coat protein” value stood at 28.2 nM under setting [3], 17.4 nM under setting [2] and 21.3 nM under setting [4].

On to “UACAUGAGGAUCACCCAUGUUUUGUCGUGUAUGGUAUUUAUCUAGGAUAUCAAUUUGUUUAAUUAUGAGAAGGAGAAUAUUAAU [JMF's solution 70] (Eterna round: R96, puzzle: Exclusion NG 3)”, for which the “apparent KD of MS2 coat protein” value came out at 34.3 nM (input ligand: FMN 200 uM), 25.8 nM under setting [1] and 35.6 nM (input ligand: none).

As to “UUUUUAUAACAAGGAUAUACUAAACAUGAGGAUCACCCAUGUAAUAUUAUGAGUGAGAGAGAGAAGUAGAAGGUGUAUUAUUUU [JMF solution 2] (Eterna round: R96, puzzle: Exclusion NG 2)”, the “apparent KD of MS2 coat protein” value under setting [1] turned out to be 82.4 nM.

For “GAAGAGUGAGGAUAUACAUGAGGAUCACCCAUGUUAACCUUCUACAGCAUGGACUCGAGUAGAAGGCGCCAAGA [Eternabot (Original) Solution 21] (Eterna round: R97, puzzle: Exclusion 3)”, the “apparent KD of MS2 coat protein” value (input ligand: FMN 200 uM) was 20.3 nM and the “apparent KD of MS2 coat protein” value (input ligand: none) amounted to 25.8 nM.

As to “CACCGUUACAGAGGAUAUGUUACAUGAGGAUCACCCAUGUAAUAAAUGAGAAUUUCGAAUGUAAUACAGAAGGCUGGAAUCGGC [Ostracism 75 - Jieux - Exclusion NG 2] (Eterna round: R96, puzzle: Exclusion NG 2)”, the “apparent KD of MS2 coat protein” value (input ligand: FMN 200 uM) is 38.3 nM, the “apparent KD of MS2 coat protein” value under setting [1] is 15.8 nM and the “apparent KD of MS2 coat protein” value (input ligand: none) turned out to be 21.3 nM.

In the case of “CCGACGUGAGGAUAUCCAUCUGGAUCAGACAAGAUCCUGAUGGAGAAGGCACAUGAGGAUCACCCAUGUUACGG [Mat - Exclusion 4 - Eli Mod - D59] (Eterna round: R97, puzzle: Exclusion 4)”, the “apparent KD of MS2 coat protein” value runs as follows: (input ligand: FMN 200 uM) 738 nM; (input ligand: none) 412 nM.

For the sequence “CAUGCACAUGAGGAUCACCCAUGUGAGGAUAUUUAGCGUCAGUAAUCAAUAGACAGCAGAAGAAGGCACCUGGU [Eternabot (L2) Solution 73] (Eterna round: R97, puzzle: Exclusion 1)”, the “apparent KD of MS2 coat protein” value reads like this: (input ligand: FMN 200 uM) 35 nM; (input ligand: none) 29.4 nM.

“UACUUCUGAGGAUAUACAUAGAUUUACAUGAGGAUCACCCAUGUUCCUCUUUGUAUAAAUGUAGAAGGCAGAAGAU [Mat - Exclusion 5 - JL Mod - D74] (Eterna round: R97, puzzle: Exclusion 5)”: the “apparent KD of MS2 coat protein” value worked out at 95.6 nM (input ligand: FMN 200 uM) and 231 nM (input ligand: none).
